Measured values reported in patent US12558350B2, “Compositions and methods for treatment” (Bausch + Lomb Ireland Limited, priority 2005, dated 2026).

Experiments:
LFA-1/ICAM-1 = target: T1, LFA-1/ICAM-1 (Homo sapiens, UniProt P05107+P20701); assay: LFA-1/ICAM-1 ligand binding ELISA with Schild analysis
T1 construct: made in house; host or cells: human 293 cells
Description: (§1) Pharmacologic Analysis of Drug-Receptor Interaction, Lippincott-Raven, Philadelphia). […] The order of antagonist concentrations was, -[…]-(lowest added antagonist concentration), -Δ-, -μ-, -♦-, -▪-, -σ- to -λ-(highest antagonist concentration). The fits of the data are shown as the solid lines. The data shown are from one plate and are representative of a minimum of two experiments.
This model is based upon the assumptions that equiactive responses in an assay are the result of equivalent occupancy of receptor by ligand and that maximal binding is unchanged by the presence of antagonist. In a Schild analysis, the dose ratio is the ratio of the EC50 values in the presence and absence of antagonist and is a measure of the ligand concentrations leading to equiactive responses. This dose ratio was determined for each concentration of antagonist and the Schild regressions were plotted as shown in FIG. 11.
(§2) In all cases the ligand was added concurrently with the antagonist. The plates were incubated for 6 h at 37° C. to approach equilibrium conditions after antagonist and ligand addition, before wash and addition of the detection antibody. The EC50 values for each curve were determined by fitting with a four parameter model as described above. […] The slopes of the plots of the Log (Conc. ratio −1) vs. Antagonist concentration are calculated by fitting the line to the linear equation, Y=A+BX.

LFA-1 [1] = target: T2, LFA-1 (Homo sapiens, UniProt P05107+P20701); assay: LFA-1/small molecule ELISA, antagonist competition with compound 2B; details: 25 nM compound 2B; FIG. 8B; read-out: IC50, inhibition of binding of compound 2B to LFA-1
T2 construct: made in house; host or cells: human 293 cells
T2 sequence (P20701 26-1170): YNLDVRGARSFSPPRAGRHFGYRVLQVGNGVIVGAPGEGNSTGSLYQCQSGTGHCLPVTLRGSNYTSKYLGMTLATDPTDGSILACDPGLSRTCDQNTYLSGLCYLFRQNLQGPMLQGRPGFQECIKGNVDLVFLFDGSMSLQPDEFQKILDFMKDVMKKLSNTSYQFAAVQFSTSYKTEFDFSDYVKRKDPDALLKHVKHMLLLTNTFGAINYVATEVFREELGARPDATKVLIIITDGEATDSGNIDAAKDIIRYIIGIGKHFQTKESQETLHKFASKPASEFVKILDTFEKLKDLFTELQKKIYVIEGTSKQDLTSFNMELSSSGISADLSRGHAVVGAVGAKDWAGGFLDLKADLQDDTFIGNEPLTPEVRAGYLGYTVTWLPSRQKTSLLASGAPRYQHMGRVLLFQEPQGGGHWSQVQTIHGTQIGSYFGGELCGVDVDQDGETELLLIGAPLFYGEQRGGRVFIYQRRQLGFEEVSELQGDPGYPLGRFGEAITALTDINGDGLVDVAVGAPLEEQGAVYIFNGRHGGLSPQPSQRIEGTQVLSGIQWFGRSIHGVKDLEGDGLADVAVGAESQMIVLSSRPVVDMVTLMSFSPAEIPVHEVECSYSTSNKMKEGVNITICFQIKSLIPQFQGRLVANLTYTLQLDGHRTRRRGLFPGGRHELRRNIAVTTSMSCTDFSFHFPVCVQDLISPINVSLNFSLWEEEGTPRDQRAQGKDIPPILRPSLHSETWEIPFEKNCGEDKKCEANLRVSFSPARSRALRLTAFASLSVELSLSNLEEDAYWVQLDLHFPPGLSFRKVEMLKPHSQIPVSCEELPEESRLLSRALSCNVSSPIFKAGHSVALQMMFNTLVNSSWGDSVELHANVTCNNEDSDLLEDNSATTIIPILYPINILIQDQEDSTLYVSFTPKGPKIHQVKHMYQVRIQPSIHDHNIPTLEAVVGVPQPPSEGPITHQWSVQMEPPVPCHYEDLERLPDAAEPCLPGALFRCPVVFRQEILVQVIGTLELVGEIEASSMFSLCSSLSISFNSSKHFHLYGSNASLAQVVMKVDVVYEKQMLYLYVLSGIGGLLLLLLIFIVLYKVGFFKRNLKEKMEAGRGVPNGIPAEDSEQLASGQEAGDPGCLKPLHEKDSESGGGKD
T2 sequence (P05107 23-769): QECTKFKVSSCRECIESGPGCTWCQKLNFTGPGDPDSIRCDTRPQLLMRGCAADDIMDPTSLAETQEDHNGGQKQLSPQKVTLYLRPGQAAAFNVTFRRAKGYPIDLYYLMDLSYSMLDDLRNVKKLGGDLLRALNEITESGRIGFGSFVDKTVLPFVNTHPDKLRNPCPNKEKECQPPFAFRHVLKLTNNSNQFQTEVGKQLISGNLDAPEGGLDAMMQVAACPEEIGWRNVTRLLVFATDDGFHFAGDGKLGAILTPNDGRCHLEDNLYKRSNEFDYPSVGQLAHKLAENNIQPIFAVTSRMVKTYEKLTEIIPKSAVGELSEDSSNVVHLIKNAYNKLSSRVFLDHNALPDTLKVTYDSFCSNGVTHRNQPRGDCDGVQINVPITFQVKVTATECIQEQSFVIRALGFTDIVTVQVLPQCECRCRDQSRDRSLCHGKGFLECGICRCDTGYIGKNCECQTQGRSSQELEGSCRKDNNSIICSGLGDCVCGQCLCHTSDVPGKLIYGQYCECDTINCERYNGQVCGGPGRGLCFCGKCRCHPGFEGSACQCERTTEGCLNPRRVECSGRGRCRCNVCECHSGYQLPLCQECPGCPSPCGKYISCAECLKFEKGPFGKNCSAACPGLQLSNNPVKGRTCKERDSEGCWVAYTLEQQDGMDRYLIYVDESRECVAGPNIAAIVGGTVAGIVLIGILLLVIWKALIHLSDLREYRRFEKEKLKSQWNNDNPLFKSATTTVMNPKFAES
Procedure: 96-well plates were coated with 5 μg/ml (33.3 nM) mouse anti-human 82 integrin (a non-function blocking antibody) in phosphate-buffered saline (PBS) overnight at 4° C. The plates were blocked with assay buffer (20 mM Hepes, pH 7.2, 140 mM NaCl, 1 mM MnCl2, 0.5% bovine serum albumin (BSA) and 0.05% Tween-20) for 1 hour at room temperature. After washing in buffer (50 mM Tris-HCl, pH 7.5, 100 mM NaCl, 1 mM MnCl2, and 0.05% Tween-20), 8 nM LFA-1 (LFA-1/ICAM-1 ELISA) or 2 nM LFA-1 (LFA-1/small molecule ELISA) were added, followed by incubation for 1 h at 37° C. […] In the LFA-1/small molecule ELISA, the diluted antagonists and 25 nM compound 2B were added concurrently to the plates, followed by a 2-hour incubation at 37° C. Sheep anti-fluorescein-HRP was added after a wash and incubated for one hour at 37° C. For both assays, after washing, the bound HRP-conjugated antibodies were detected by addition of tetramethylbenzidine (TMB) followed by measurement of the absorbance of the product at 450 nm after the addition of 1 M H3PO4 to stop the reaction. The IC50 values for each curve were determined by fitting to the four-parameter equation described above using KaleidaGraph software.

LFA-1 [2] = target: T2, LFA-1; assay: LFA-1/small molecule ligand binding ELISA; details: FIG. 10B, D, F
Procedure: as §1, §2

T1 sequence (P20701 26-1170): as the sequence (P20701 26-1170) above
T1 sequence (P05107 23-769): as the sequence (P05107 23-769) above

slope of Schild regression (LFA-1/ICAM-1; ligand ICAM-1-Ig, FIG. 11): 1.26
y-intercept of Schild regression (LFA-1/ICAM-1; ligand ICAM-1-Ig, FIG. 11): 8.51
IC50 (LFA-1 [1]): 1.2 µM
effect of increasing antagonist concentration on compound 2B binding curves (LFA-1 [2]): showed a similar effect
B1: sICAM-1: truncated form of native ICAM-1 without the transmembrane and cytoplasmic domains, with intact LFA-1 binding epitope; R&D Systems (protein, UniProt P05362 28-480, looked up)
extracellular domain: QTSVSPSKVILPRGGSVLVTCSTSCDQPKLLGIETPLPKKELLLPGNNRKVYELSNVQEDSQPMCYSNCPDGQSTAKTFLTVYWTPERVELAPLPSWQPVGKNLTLRCQVEGGAPRANLTVVLLRGEKELKREPAVGEPAEVTTTVLVRRDHHGANFSCRTELDLRPQGLELFENTSAPYQLQTFVLPATPPQLVSPRVLEVDTQGTVVCSLDGLFPVSEAQVHLALGDQRLNPTVTYGNDSFSAKASVSVTAEDEGTQRLTCAVILGNQSQETLQTVTIYSFPAPNVILTKPEVSEGTEVTVKCEAHPRAKVTLNGVPAQPLGPRAQLLLKATPEDNGRSFSCSATLEVAGQLIHKNQTRELRVLYGPRLDERDCPGNWTWPENSQQTPMCQAWGNPLPELKCLKDGTFPLPIGESVTVTRDLEGTYLCRARSTQGEVTRKVTVNVLSPRYE
modifications: extracellular domain
notes: R&D Systems
effect of increasing antagonist concentration on ICAM-1-Ig binding curves (LFA-1/ICAM-1; FIG. 10A, C, E): shifted the ICAM-1-Ig binding curves rightward to higher EC50 values
